# Assay results as given in paper PMC8998743, “Dimerization Activity of a Disordered N-Terminal Domain from Drosophila CLAMP Protein” (International Journal of Molecular Sciences, 2022).
# What was measured:
# [1] = target: the molecule itself; experiment: SAXS; in solution, BM29 BioSAXS beamline (ESRF); molecular weight from extrapolated I0; CLAMP 1-153 at 2.3 mg/mL, CLAMP 1-113 at 1.0 and 7.0 mg/mL, CLAMP 87-153 at 2.5 and 10.0 mg/mL
# [2] = target: the molecule itself; experiment: cross-linking; thioredoxin-tagged proteins at 5 μM, increasing concentrations of glutaraldehyde, 10 min at room temperature, 20 mM HEPES pH 7.7, 150 mM NaCl, 20 mM imidazole, 1 mM β-mercaptoethanol; SDS-PAGE, silver staining
# [3] = target: the molecule itself; experiment: SEC; Superdex S200 size-exclusion chromatography of purified CLAMP derivatives
Protein,stoichiometry N [1],other results
"CLAMP^1–153 (purified, tag cleaved) (domain or fragment, D. melanogaster, UniProt Q9V9N4 1-153, looked up, source: E. coli BL21(DE3), purified (Ni-NTA, TEV cleavage, SOURCE15Q)) MEDLTKNIIFTNAINGQPATIQYQTADGTILKQPKIEGQKTEQQPTFYYTTNGNGGTVNLAQLATTDDNKTCYIAQPVGGYNYALVNGMPLNQGAALGIATVDAQGRIQIVNQNKPIAANTISNISFKCDVCSDMFPHLALLNAHKRMHTDGE",2,–
"CLAMP^1–113 (purified, tag cleaved) (domain or fragment, D. melanogaster, UniProt Q9V9N4 1-113, looked up, source: E. coli BL21(DE3), purified (Ni-NTA, TEV cleavage, SOURCE15Q)) MEDLTKNIIFTNAINGQPATIQYQTADGTILKQPKIEGQKTEQQPTFYYTTNGNGGTVNLAQLATTDDNKTCYIAQPVGGYNYALVNGMPLNQGAALGIATVDAQGRIQIVNQ",2,–
"thioredoxin-tagged CLAMP^1–127 (domain or fragment, D. melanogaster, UniProt Q9V9N4 1-127, looked up, Used in glutaraldehyde cross-linking with the thioredoxin tag on; source: E. coli BL21(DE3), purified) MEDLTKNIIFTNAINGQPATIQYQTADGTILKQPKIEGQKTEQQPTFYYTTNGNGGTVNLAQLATTDDNKTCYIAQPVGGYNYALVNGMPLNQGAALGIATVDAQGRIQIVNQNKPIAANTISNISF",–,binding result [2]: binds
"CLAMP^1–127 (purified, tag cleaved) (domain or fragment, D. melanogaster, UniProt Q9V9N4 1-127, looked up, source: E. coli BL21(DE3), purified (Ni-NTA, TEV cleavage, SOURCE15Q)) MEDLTKNIIFTNAINGQPATIQYQTADGTILKQPKIEGQKTEQQPTFYYTTNGNGGTVNLAQLATTDDNKTCYIAQPVGGYNYALVNGMPLNQGAALGIATVDAQGRIQIVNQNKPIAANTISNISF",–,binding result [3]: binds
